From the RNAGym collection of RNA variant scans (doi:10.7554/elife.80360)

B1: Hairpin Ribozyme (parent)
chain: GUCCUCUUUCACGUGCGCGUGAAAGAGAGAAGUGAACCAGAGAAACACACGUUGUGGUAUAUUACCUGGUA

Variants of: B1
Test: self-cleavage, relative activity (ratio to wild type); higher = more cleavage; co-transcriptional

Q: With GUCCUCUUUCACGUGCGUGUGAAAGAGAGAAGUAAACCAGAGAAACACACGUUGUGGUAUAUUACCUGGUA as the variant, how does the self-cleavage read?
A: The self-cleavage was 1.3.

Q: Which self-cleavage does the source give for GUCCUCUUUCCCGUGCGCGUGAAAGAGAGAAGAGAACCAGAGAAACACACGUUGUGGUAUAUUACCUGGUA here?
A: The self-cleavage was 0.222.

Q: Which self-cleavage does the source give for GUCCUCUUUCACGUGCGCGUGAGAGAGAGAAGUGAACCAGAGAAACACACGUUGUGGUAUAAUACCUGGUA here?
A: Its self-cleavage is 0.116.

Q: Which self-cleavage does the source give for GUCCUCUUUCACGUGCGCGUGAAAUAGAGAAGUGAACCAGAGAAACACUCGUUGUGGUAUAUUACCUGGUA here?
A: Its self-cleavage is 0.136.

Q: For GUCCUCUUUCACGUGUGCGUGAAAGAGAGAAGUGAACCAGAGAAACACACGUUGUGGUAUAUUACCAGGUA, which self-cleavage is on record?
A: Its self-cleavage is 0.325.

Q: Which self-cleavage does the source give for GUCCUCUUUCACGUGCGCGUCAAAGAGAGAAGUGAACCAGAGAAACACACGUUGUGCUAUAUUACCUGGUA here?
A: Its self-cleavage is 0.143.

Q: With GUCCUCUUUCACGUGCGCGUGAAAGUCAGAAGUGAACCAGAGAAACACACGUUGUGGUAUAUUACCUGGUA as the variant, how does the self-cleavage read?
A: The self-cleavage was 0.177.

Q: Which self-cleavage does the source give for GUCCUCAUUCACGUGCGCGUGAAAGAGAGAAGUGAACCAGAGAAACACACGUUGUGUUAUAUUACCUGGUA here?
A: The self-cleavage was 0.253.

Q: Which self-cleavage does the source give for GUCCUCUUUCACGUGCGCGUGAGAGAGAGAAGUGAACCAGAGAAACACACGUUGAGGUAUAUUACCUGGUA here?
A: The self-cleavage was 0.273.

Q: Which self-cleavage does the source give for GUCCUCUUUCACGUGCGCGUGAAAGAGAGAAGUGACCCAGAGAAACACACGUUGUGGUAUAUAACCUGGUA here?
A: The self-cleavage was 0.0749.

Q: Which self-cleavage does the source give for GUCCUCUUUCACGUGCGCGUGAAAGAGAGAAGUGGACCAGAGAAUCACACGUUGUGGUAUAUUACCUGGUA here?
A: The self-cleavage was 0.25.

Q: With GUCCUCUUUCACGUGCGCGUGAAAGAGAGAAGUGAACCAGAGAAACCCUCGUUGUGGUAUAUUACCUGGUA as the variant, how does the self-cleavage read?
A: Its self-cleavage is 0.171.

Q: Which self-cleavage does the source give for GUCCUCUUUCACGUGCGCGUGAAAGAGAGAAGUGAACCAGAGAAACACACGUUGUGUUAUAUUACGUGGUA here?
A: The self-cleavage was 0.

Q: For GUCCUCUUUCACGUGCGCGUGAAAGAGAGUAGUGAACCAUAGAAACACACGUUGUGGUAUAUUACCUGGUA, which self-cleavage is on record?
A: The self-cleavage was 0.129.

Q: With GUCCUCUUUCACGUGCGCGUGCAAGAGAGAUGUGAACCAGAGAAACACACGUUGUGGUAUAUUACCUGGUA as the variant, how does the self-cleavage read?
A: The self-cleavage was 0.108.

Q: Which self-cleavage does the source give for GCCCUCUUUCACGUGCGCGUGAAAGAGAGAAGUGAACCAGAGAAACACCCGUUGUGGUAUAUUACCUGGUA here?
A: The self-cleavage was 0.189.

Q: For GUCCUCUUACACGUGCGCGUGAAAGAGAGAAGUGUACCAGAGAAACACACGUUGUGGUAUAUUACCUGGUA, which self-cleavage is on record?
A: The self-cleavage was 0.578.

Q: With GUCCUCUUUCACGUGCGCGUGAAAGAGAGAAGGGAACCAGAGAAACACACGUUGUGGUAUAUUGCCUGGUA as the variant, how does the self-cleavage read?
A: Its self-cleavage is 0.108.

Q: For GUCCUCUUUCACGUGAGCGUGAAAGAGAGAAGUGAACCAGAGAAACAUACGUUGUGGUAUAUUACCUGGUA, which self-cleavage is on record?
A: Its self-cleavage is 0.0945.

Q: Which self-cleavage does the source give for GUCCUCUUUCACGUGCGCCUGAAAGAGAGAAGUGAACCAGAGAAACACACGUUGUGGUAUAUUACCUGGCA here?
A: Its self-cleavage is 0.879.

Q: Which self-cleavage does the source give for GUCCUCUUUCACGUGCGCGUGAAAGAGAGAAGUGAACUAGAGAGACACACGUUGUGGUAUAUUACCUGGUA here?
A: Its self-cleavage is 0.0449.

Q: With GUCCUCUUUCACGUGCGCGUGAAAGAGAGAAGUGAACCAGAGAAACACACAUUGUGUUAUAUUACCUGGUA as the variant, how does the self-cleavage read?
A: The self-cleavage was 0.299.

Q: Which self-cleavage does the source give for GUCCUCUUUUACGUGCCCGUGAAAGAGAGAAGUGAACCAGAGAAACACACGUUGUGGUAUAUUACCUGGUA here?
A: The self-cleavage was 0.58.

Q: For GUCCUCUUUCACGUGCGCGUGGAAGAGAGAAGUGAACCAGAGAAACACCCGUUGUGGUAUAUUACCUGGUA, which self-cleavage is on record?
A: The self-cleavage was 0.164.

Q: Which self-cleavage does the source give for GUCCUCUUUCACGUGCGCGUUAAAGAGAGAAGUGAACCAGAGAAACACACGUUGUGGUAUAUUACCUCGUA here?
A: Its self-cleavage is 0.187.

Q: For GUCCUCUUUCACGUGCGCGUGAAAGUGAGAAGUGAACCAGAGAAACACACGUUCUGGUAUAUUACCUGGUA, which self-cleavage is on record?
A: The self-cleavage was 0.305.

Q: With GUCCUCUUUGACGUGCGCGUGAAAGAGAGAAGUGAACCAGAGAAACACACGUUGUGGUAUAUUACCUGGGA as the variant, how does the self-cleavage read?
A: Its self-cleavage is 0.611.

Q: Which self-cleavage does the source give for GUCCUCUUGCACGUGCGCGUGAAAGAGAGAAGUGAACAAGAGAAACACACGUUGUGGUAUAUUACCUGGUA here?
A: Its self-cleavage is 0.243.

Q: With GUCCUCUUUCACGUGGGCGUGAAAGAGAGAAGUGAACCAGAGAAACCCACGUUGUGGUAUAUUACCUGGUA as the variant, how does the self-cleavage read?
A: The self-cleavage was 0.293.

Q: With GUCCUCUUUCACGUGCGCGUGAAAGAGAGAAGUGAACCAGAGAAACACACGUAGUGGUAUAUUAUCUGGUA as the variant, how does the self-cleavage read?
A: Its self-cleavage is 0.241.

Q: Which self-cleavage does the source give for GUCCUCUUUCACGUGCGCGUGAAAGAGGGAAGUGAACCAGCGAAACACACGUUGUGGUAUAUUACCUGGUA here?
A: The self-cleavage was 0.961.

Q: Which self-cleavage does the source give for GUCCUCUUUCACGAGCGCGUGAAAGAGAGAAGUGAACCAGAGAAACACACGUUGUGGUAGAUUACCUGGUA here?
A: The self-cleavage was 0.614.

Q: For GUCCUCUUCCACGUGCGCGUGAAAGAGAGAAGUGAACCAGAGAAACACACGUUGUGGUAUAUUGCCUGGUA, which self-cleavage is on record?
A: Its self-cleavage is 0.381.

Q: With GUCCUCUUUCACGUGCGCGUUAAAGAGAGAAGUGAACCAGAGAAACACACGUUGUAGUAUAUUACCUGGUA as the variant, how does the self-cleavage read?
A: The self-cleavage was 0.178.

Q: For GUCCUCUUUCACGUGCGCGUGAAAGAGAGAAGUGAACCAGAGAAACACACGUUGUGGUAUAUCACCCGGUA, which self-cleavage is on record?
A: Its self-cleavage is 0.148.

Q: For GUCCUCUUUCACGUGCGCGUGAAAGAGUGAAGUGAACCAGAGAAACACACGUGGUGGUAUAUUACCUGGUA, which self-cleavage is on record?
A: Its self-cleavage is 0.432.

Q: Which self-cleavage does the source give for GUCCGCUUUCACGUGCGCGUGAAAGAGAGAAGUGAACCAGAGAAACACACGCUGUGGUAUAUUACCUGGUA here?
A: Its self-cleavage is 0.596.

Q: For GUCCUCUUUCACGUACGCGUGAAAGAGAGAAGUGAACCAGAGAAACACACGUUGUGGUGUAUUACCUGGUA, which self-cleavage is on record?
A: Its self-cleavage is 0.111.
